This note sets out measurements from patent US20250205308A1, “Supraparticles” (THE BIONICS INSTITUTE OF AUSTRALIA, priority 2017, published 2025).

A short description of the data set: In vivo clearance of radiolabelled neurotrophin-3 from the cochlea after supraparticle implantation (whole cochlear gamma counts). Here is the method: In vivo studies were carried out to determine the drug payload and clearance of neurotrophin delivered in a supraparticle implanted into the ear after 4 hr, 3 day and 7 days of implantation. The objective was to determine the amount of neurotrophin remaining in the cochlea over time.
1 SP containing radiolabelled neurotrophin-3 was implanted into each cochlea. Cochleae were harvested following 4 hrs (n=5), 3d (n=7) or 7d (n=4). Whole cochlear gamma counts were measured to determine the clearance of neurotrophin-3 over time. After 1 week of implantation each SP contained ˜2 μg of neurotrophin-3 (˜40%) of initial loaded amount.
Further experiments (n=2) were carried out to examine clearance of neurotrophin-3 following round window delivery. 3 days after implantation-whole cochlear measurements were again used to determine the clearance of neurotrophin-3 from the round window membrane.

Where [1] appears, read: 1 SP implanted into each cochlea, after 1 week of implantation.

Turning to “neurotrophin-3: Radiolabelled neurotrophin delivered in a supraparticle implanted into the cochlea”, under setting [1], the “neurotrophin-3 remaining (% of initial loaded amount)” value was around 40% and the “neurotrophin-3 remaining per SP” value is around 2 µg. The substance further displayed a neurotrophin-3 remaining (intracochlear delivery, 3 days) of 56%. Under “round window delivery, 3 days after implantation”, this substance showed a neurotrophin-3 remaining of 47.4%.
